The results in this text go back to IntAct's records for PubMed 22536782.

The chains are these.
B1: GRB2-associated-binding protein 1 (Homo sapiens), Q13480 (parent)
chain: MSGGEVVCSGWLRKSPPEKKLKRYAWKRRWFVLRSGRLTGDPDVLEYYKNDHAKKPIRIIDLNLCQQVDAGLTFNKKEFENSYIFDINTIDRIFYLVADSEEEMNKWVRCICDICGFNPTEEDPVKPPGSSLQAPADLPLAINTAPPSTQADSSSATLPPPYQLINVPPHLETLGIQEDPQDYLLLINCQSKKPEPTRTHADSAKSTSSETDCNDNVPSHKNPASSQSKHGMNGFFQQQMIYDSPPSRAPSASVDSSLYNLPRSYSHDVLPKVSPSSTEADGELYVFNTPSGTSSVETQMRHVSISYDIPPTPGNTYQIPRTFPEGTLGQTSKLDTIPDIPPPRPPKPHPAHDRSPVETCSIPRTASDTDSSYCIPTAGMSPSRSNTISTVDLNKLRKDASSQDCYDIPRAFPSDRSSSLEGFHNHFKVKNVLTVGSVSSEELDENYVPMNPNSPPRQHSSSFTEPIQEANYVPMTPGTFDFSSFGMQVPPPAHMGFRSSPKTPPRRPVPVADCEPPPVDRNLKPDRKVKPAPLEIKPLPEWEELQAPVRSPITRSFARDSSRFPMSPRPDSVHSTTSSSDSHDSEENYVPMNPNLSSEDPNLFGSNSLDGGSSPMIKPKGDKQVEYLDLDLDSGKSTPPRKQKSSGSGSSVADERVDYVVVDQQKTLALKSTREAWTDGRQSTESETPAKSVK

Variants of B1 are the subject of one assay. The following applies: with grb2_human GRB2, P62993.
Chain of grb2_human GRB2, P62993 (P62993 whole entry, looked up): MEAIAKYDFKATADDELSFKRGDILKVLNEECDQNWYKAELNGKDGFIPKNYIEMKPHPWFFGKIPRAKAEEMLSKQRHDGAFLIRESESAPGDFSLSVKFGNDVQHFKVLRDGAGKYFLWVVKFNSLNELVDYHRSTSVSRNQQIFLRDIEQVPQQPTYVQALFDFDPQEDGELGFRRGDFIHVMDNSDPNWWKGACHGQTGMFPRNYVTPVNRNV
With L523A, the “effect of a mutation on the interaction” value was “decreasing interaction”.

For the variant K524A, the “effect of a mutation on the interaction” value is “decreasing interaction”.

As to R521A, the “effect of a mutation on the interaction” value was “decreasing interaction”.

As for N522A, the “effect of a mutation on the interaction” value is “decreasing interaction”.

Another assay covers variants of B1. The following applies: with grb2_human GRB2, P62993. This is another data set of the same source.
With P346A, the “effect of a mutation on the interaction” value is given as “increasing interaction”.

As to P345A, the “effect of a mutation on the interaction” value is “increasing interaction”.

For R344A, the “effect of a mutation on the interaction” value is given as “increasing interaction”.

Take K347A: the “effect of a mutation on the interaction” value is given as “increasing interaction”.
